According to patent US20140223591A1:

B1: SMI41 ascites IgG (antibody, V domains shown)
VH: QVTLKESGPGILRPSQTLDLTCSFSGFSLSTSGLSVGWIRQPSGKGLEWLAHIWWDDVKYFNPSLKSRLTISKDSSRNQVFLKITSVDTADSATYHCTRGPLGHGFDYWGQGTLVTVSA
VL: DVVMTQTPLSLPVSLGDQAFISCRSSQSLVHSDGNSYLHWYLQKPGQSPKLLIYKVSNRFSGVPDRFSGSGSGTDFTLKISRVEAEDLGLYFCSQTTHVPWTFGGGTKLEIK
B2: SMI41-HEK293T-IgG (antibody, V domains shown)
VH: B1 VH
VL: DVVMTQTPLSLPVSLGDQAFISCRSSQSLVHSDGNSYLHWYLQKPGQSPKLLIYKVSNRFSGVPDRFSGSGSGTDFTLKISRVEAEDLGLYFCSQTTHVPWTFGGGTKLEIKR
B3: HB-9094-HEK293T-IgG (antibody, V domains shown)
VH: QIQLVQSGPELKKPGETVKISCKASGYPFTNYGMNWVKQAPGKGLKWMGWINTYTGEPACADDFRGRFAISLETSARTAYLQINNLINEDTATYFCARTGGGRYNYGMDYWGQGTSVTVSS
VL: QIVLTQSPAIMSASPGEKVTITCSATSSVSYIHWFQQKPGTSPKLWIYSTSNLASGVPVRFSGSGSGTSYSLTISRMEAEDAATYYCQQRSSYPPTFGGGTKLEIKR

Columns and labels:
[1] = target: Gonadotrophin releasing hormone 1 (GnRH1) (UniProt P01148); test: SPR
[2] = target: Gonadotrophin releasing hormone 1 (GnRH1) (UniProt P01148); test: SPR, Biacore T200; antibody captured on goat anti-mouse IgG on a CM5 chip, GnRH injected in 2-fold dilutions from 1024 nM
[3] = target: Gonadotrophin releasing hormone 1 (GnRH1) (UniProt P01148); test: SPR (Biacore T200): antibody captured on goat anti-mouse IgG immobilized on a CM5 chip, GnRH injected in 2-fold dilutions from 1024 nM

Binder | Kd [1] [pM] | koff [1] [s⁻¹] | kon [1] [M⁻¹ s⁻¹] | Kd [2] [pM] | koff [2] [s⁻¹] | kon [2] [M⁻¹ s⁻¹] | Kd [3] [pM]
B1 | 819 | 0.00467 | 8.99e+06 | – | – | – | –
B2 | 592 | 0.00282 | 4.76e+06 | 592 | 0.00282 | 4.76e+06 | –
B3 | 918 | 0.000249 | 272000 | 918 | 0.000249 | 272000 | 270
